The source of these data is publication PMC4933246, “Alanine Expansions Associated with Congenital Central Hypoventilation Syndrome Impair PHOX2B Homeodomain-mediated Dimerization and Nuclear Import*” (The Journal of Biological Chemistry, 2016).

Some results are limits rather than exact numbers.

The data set deals with the molecule itself. Description: two-hybrid; mammalian two-hybrid (CheckMate, Promega) in HeLa cells; GAL4 BD fusion (pBIND) and VP16 AD fusion (pACT), 80 fmol each, with 160 fmol pG5LUC; Dual-Luciferase assay.

B1: PHOX2A fused to GAL4 BD or VP16 AD (natural protein)
chain: not shown
notes: PHOX2A, human; Each copy carries either GAL4 BD or VP16 AD; also called GAL4 BD-PHOX2A; VP16 AD-PHOX2A; source: mammalian two-hybrid fusion, transfected HeLa cells
B1: the “luciferase activity relative to that of the PHOX2B fusion constructs” value was greater than 2 fold.
